In paper PMC5982114 (Arteriosclerosis, thrombosis, and vascular biology, 2018):
Each block holds one molecule with its values, some of them ahead of it.

What was measured:
Protein S (human) = Protein S (human) (UniProt P07225); experiment: fluorescence polarisation
[1] = target: Alexa-Fluor-488-labeled PS (human) (UniProt P07225); experiment: flow cytometry on cells
Factor IXa wild type = Factor IXa wild type (human, UniProt P00740 47-191; P00740 227-461); experiment: cell-based or functional assay
FIXa R150A (human) = FIXa R150A (human) (UniProt P00740)
[2] = target: FIXa Padua mutant (R170L) (human) (UniProt P00740)
FIXa N129A (human) = FIXa N129A (human) (UniProt P00740)
FIXa K132A/R170A (human) = FIXa K132A/R170A (human) (UniProt P00740)
FIXa K132A (human) = FIXa K132A (human) (UniProt P00740)
FIXa R165A (human) = FIXa R165A (human) (UniProt P00740)
FIXa K126A (human) = FIXa K126A (human) (UniProt P00740)
DEGR-FIXa N129A (human) = DEGR-FIXa N129A (human) (UniProt P00740); experiment: other fluorescence titration
[3] = target: DEGR-FIXa Padua mutant (R170L) (human) (UniProt P00740); experiment: other fluorescence titration
DEGR-FIXa K126A (human) = DEGR-FIXa K126A (human) (UniProt P00740); experiment: other fluorescence titration
DEGR-FIXa K132A (human) = DEGR-FIXa K132A (human) (UniProt P00740); experiment: other fluorescence titration
[4] = target: DEGR-labelled des-Gla FIXa (human); experiment: other fluorescence titration
DEGR-FIXa R150A (human) = DEGR-FIXa R150A (human) (UniProt P00740); experiment: other fluorescence titration
DEGR-FIXa R165A (human) = DEGR-FIXa R165A (human) (UniProt P00740); experiment: other fluorescence titration

Molecule: fluorescently labeled des-Gla FIXa (domain or fragment)
median fluorescence intensity [1]: 4000

Molecule: FIXa K132A (from UniProt P00740 47-191) (enzyme)
IC50 (Protein S (human)): 213 nM

Molecule: zymogen form of FIX (natural protein)
IC50 (Protein S (human)): 200 nM

B1: Protein S (natural protein, human, UniProt P07225 42-676, looked up)
chain: ANSLLEETKQGNLERECIEELCNKEEAREVFENDPETDYFYPKYLVCLRSFQTGLFTAARQSTNAYPDLRSCVNAIPDQCSPLPCNEDGYMSCKDGKASFTCTCKPGWQGEKCEFDINECKDPSNINGGCSQICDNTPGSYHCSCKNGFVMLSNKKDCKDVDECSLKPSICGTAVCKNIPGDFECECPEGYRYNLKSKSCEDIDECSENMCAQLCVNYPGGYTCYCDGKKGFKLAQDQKSCEVVSVCLPLNLDTKYELLYLAEQFAGVVLYLKFRLPEISRFSAEFDFRTYDSEGVILYAESIDHSAWLLIALRGGKIEVQLKNEHTSKITTGGDVINNGLWNMVSVEELEHSISIKIAKEAVMDINKPGPLFKPENGLLETKVYFAGFPRKVESELIKPINPRLDGCIRSWNLMKQGASGIKEIIQEKQNKHCLVTVEKGSYYPGSGIAQFHIDYNNVSSAEGWHVNVTLNIRPSTGTGVMLALVSGNNTVPFAVSLVDSTSEKSQDILLSVENTVIYRIQALSLCSDQQSHLEFRVNRNNLELSTPLKIETISHEDLQRQLAVLDKAMKAKVATYLGGLPDVPFSATPVNAFYNGCMEVNINGVQLDLDEAISKHNDIRAHSCPSVWKKTKNS
Ki of inhibition by PS of FX activation by FIXa-phospholipid (S-2765) (Factor IXa wild type): 35 nM
Ki of inhibition by PS of FX activation by FIXa-phospholipid (S-2765) (FIXa R150A (human)): 48 nM
Ki of inhibition by PS of FX activation by FIXa-phospholipid (S-2765) [2]: 175 nM
Ki of inhibition by PS of FX activation by FIXa-phospholipid (S-2765) (FIXa N129A (human)): 72 nM
Ki of inhibition by PS of FX activation by FIXa-phospholipid (S-2765) (FIXa K132A/R170A (human)): 271 nM
Ki of inhibition by PS of FX activation by FIXa-phospholipid (S-2765) (FIXa K132A (human)): 132 nM
Ki of inhibition by PS of FX activation by FIXa-phospholipid (S-2765) (FIXa R165A (human)): 33 nM
Ki of inhibition by PS of FX activation by FIXa-phospholipid (S-2765) (FIXa K126A (human)): 100 nM
Ki of inhibition by PS of FX activation in the Xase complex (FIXa-FVIIIa) (des-Gla FIXa (human)): 120 nM
Kd (DEGR-FIXa N129A (human)): 77 nM
Kd [3]: 157 nM
Kd (DEGR-FIXa K126A (human)): 118 nM
Kd (DEGR-FIXa K132A (human)): 148 nM
Kd [4]: 124 nM
Kd (DEGR-FIXa R150A (human)): 48 nM
Kd (DEGR-FIXa R165A (human)): 54 nM

Now from value to molecule:

IC50 (Protein S (human)): 43 nM
Molecule: FIXa R150A (from UniProt P00740 47-191) (enzyme)

IC50 (Protein S (human)): 68 nM
Molecule: FIXa R165A (from UniProt P00740 47-191) (enzyme)

IC50 (Protein S (human)): 135 nM
Molecule: des-Gla FIXa (domain or fragment)

IC50 (Protein S (human)): 163 nM
Molecule: FIXa Padua mutant (R170L) (from UniProt P00740 47-191) (enzyme)

IC50 (Protein S (human)): 92 nM
Molecule: FIXa N129A (from UniProt P00740 47-191) (enzyme)

IC50 (Protein S (human)): 140 nM
Molecule: FIXa K126A (from UniProt P00740 47-191) (enzyme)
